Measured values as given in PMC9352680, “A comprehensive thermodynamic model for RNA binding by the Saccharomyces cerevisiae Pumilio protein PUF4”.

Biological target: T1, PUF4 RNA-binding domain (Saccharomyces cerevisiae, UniProt P25339 537-888)
T1 sequence: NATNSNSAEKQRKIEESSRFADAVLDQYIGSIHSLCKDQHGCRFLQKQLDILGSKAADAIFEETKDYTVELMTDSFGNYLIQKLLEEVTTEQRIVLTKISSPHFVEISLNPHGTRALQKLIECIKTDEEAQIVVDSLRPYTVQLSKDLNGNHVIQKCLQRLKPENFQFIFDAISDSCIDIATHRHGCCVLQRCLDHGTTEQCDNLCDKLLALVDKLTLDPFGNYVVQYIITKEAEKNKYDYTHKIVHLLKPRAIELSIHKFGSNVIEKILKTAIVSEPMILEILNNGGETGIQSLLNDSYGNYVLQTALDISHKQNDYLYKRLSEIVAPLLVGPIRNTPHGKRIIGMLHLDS
Assay: Mg; RNA-MaP; 20 mM Na-HEPES pH 7.4, 30 mM KOAc, 0.75 mM MgCl2, 0.1% Tween-20, 5% glycerol, 0.1 mg/mL BSA, 2 mM DTT; 25 C; 0.0125-409.6 nM protein
Settings: tags: N-His6-TEV cleaved; C-SNAP kept, Cy3B-labelled; label: tethered on chip by stalled RNA polymerase

UCUCUUUGUAUAUUAUUCCUCUCUU (ssRNA) [Ie_S1_P4E.1_K4.1_C4.1_H4.1_A4.1_F4.1_[+9TTCC]_T4.1]
Kd: 0.476 nM

UCUCUUUUUCGUAUUAUUAUCUCUU (ssRNA) [Ie_S1_P5E.1_K5.1_C5.1_H5.1_[+1TTC]_A5.1_F5.1_T5.1]
Kd: 1620 nM

UCUCUUUUCGUAUUAUUAUCUCUU (ssRNA) [Ie_S1_P5E.1_K5.1_C5.1_H5.1_[+1TC]_A5.1_F5.1_T5.1]
Kd: 1240 nM

UCUCUUUGUAUAUUACUCUCUCUU (ssRNA) [Ie_S1_P4E.1_K4.1_C4.1_H4.1_A4.1_F4.1_[+9CTC]_T4.1]
Kd: 1.09 nM

UCUCUUUCCUGUAUUAUUAUCUCUU (ssRNA) [Ie_S1_P5E.1_K5.1_C5.1_H5.1_[+1CCT]_A5.1_F5.1_T5.1]
Kd: 7.97 nM

UCUCUUUUUGUAUUAUUAUCUCUU (ssRNA) [Ie_S1_P5E.1_K5.1_C5.1_H5.1_[+1TT]_A5.1_F5.1_T5.1]
Kd: 7.17 nM

UCUCUUUGUAUAUUAUUCCUUCUCUU (ssRNA) [Ie_S1_P4E.1_K4.1_C4.1_H4.1_A4.1_F4.1_[+9TTCCT]_T4.1]
Kd: 0.347 nM

UCUCUUUGUAUAUUAUCCUCUCUU (ssRNA) [Ie_S1_P4E.1_K4.1_C4.1_H4.1_A4.1_F4.1_[+9TCC]_T4.1]
Kd: 0.48 nM

UCUCUUUGUAUAUUACCCUUUCUCUU (ssRNA) [Ie_S1_P4E.1_K4.1_C4.1_H4.1_A4.1_F4.1_[+9CCCTT]_T4.1]
Kd: 0.925 nM

UCUCUUUCGUAUUAUUAUCUCUU (ssRNA) [Ie_S1_P5E.1_K5.1_C5.1_H5.1_[+1C]_A5.1_F5.1_T5.1]
Kd: 1320 nM

UCUCUUUCUGUAUUAUUAUCUCUU (ssRNA) [Ie_S1_P5E.1_K5.1_C5.1_H5.1_[+1CT]_A5.1_F5.1_T5.1]
Kd: 3.96 nM

UCUCUUUCUCGUAUUAUUAUCUCUU (ssRNA) [Ie_S1_P5E.1_K5.1_C5.1_H5.1_[+1CTC]_A5.1_F5.1_T5.1]
Kd: 1250 nM

UCUCUUUGUAUAUUACCUUCUCUU (ssRNA) [Ie_S1_P4E.1_K4.1_C4.1_H4.1_A4.1_F4.1_[+9CCT]_T4.1]
Kd: 0.795 nM

UCUCUUUGUAUAUUAUCUUCUCUU (ssRNA) [Ie_S1_P4E.1_K4.1_C4.1_H4.1_A4.1_F4.1_[+9TCT]_T4.1]
Kd: 0.632 nM

UCUCUUUGUAUAUUACCUCUUCUCUU (ssRNA) [Ie_S1_P4E.1_K4.1_C4.1_H4.1_A4.1_F4.1_[+9CCTCT]_T4.1]
Kd: 1.58 nM

UCUCUUUGUAUAUUACCUCUCUCUU (ssRNA) [Ie_S1_P4E.1_K4.1_C4.1_H4.1_A4.1_F4.1_[+9CCTC]_T4.1]
Kd: 0.706 nM

UCUCUUUGUAUAUUACUCUUCUCUU (ssRNA) [Ie_S1_P4E.1_K4.1_C4.1_H4.1_A4.1_F4.1_[+9CTCT]_T4.1]
Kd: 0.906 nM

UCUCUUUGUAUAUUAUCUCUCUCUU (ssRNA) [Ie_S1_P4E.1_K4.1_C4.1_H4.1_A4.1_F4.1_[+9TCTC]_T4.1]
Kd: 0.601 nM

UCUCUUUGUAUAUUACUCUCUCUCUU (ssRNA) [Ie_S1_P4E.1_K4.1_C4.1_H4.1_A4.1_F4.1_[+9CTCTC]_T4.1]
Kd: 0.699 nM

UCUCUUUUGUAUUAUUAUCUCUU (ssRNA) [Ie_S1_P5E.1_K5.1_C5.1_H5.1_[+1T]_A5.1_F5.1_T5.1]
Kd: 5.92 nM

UCUCUUUCCCGUAUUAUUAUCUCUU (ssRNA) [Ie_S1_P5E.1_K5.1_C5.1_H5.1_[+1CCC]_A5.1_F5.1_T5.1]
Kd: 1340 nM

UCUCUUUGUAUAUUAUUCUCUCUU (ssRNA) [Ie_S1_P4E.1_K4.1_C4.1_H4.1_A4.1_F4.1_[+9TTC]_T4.1]
Kd: 0.488 nM

UCUCUUUGUAUAUUAUCUCUUCUCUU (ssRNA) [Ie_S1_P4E.1_K4.1_C4.1_H4.1_A4.1_F4.1_[+9TCTCT]_T4.1]
Kd: 0.824 nM

B1: Ib_S2_P3E.1_K3.1_C3.1_H3.1_[A4G]_A3.1_F3.1_[T7A]_T3.1 (ssRNA)
RNA: UUUGAUUAAUAUGAUAUCGUUCUUUCUUGUGUAAAUUCUUUCUCGAUAUCAUAUUAAUCUUU
Kd: 35.3 nM

B2: Ib_S2_P3E.1_K3.1_C3.1_H3.1_[A4T]_A3.1_F3.1_[T7A]_T3.1 (ssRNA)
RNA: UUUGAUUAAUAUGAUAUCGUUCUUUCUUGUUUAAAUUCUUUCUCGAUAUCAUAUUAAUCUUU
Kd: 1590 nM

UCUCUUUGUAUAUUAUUUUCUCUU (ssRNA) [Ie_S1_P4E.1_K4.1_C4.1_H4.1_A4.1_F4.1_[+9TTT]_T4.1]
Kd: 0.453 nM
